Assay results as given in the supplement of paper PMC11246515.
± gives the standard deviation of the averaged measurements.

Test: total protein half-life in vivo (active degradation + dilution); higher = more stable protein
[1] = E. coli NCM3722 delta-clpP, growth: N-lim chemostat, doubling time 6 h
[2] = E. coli NCM3722 delta-hslV, growth: N-lim chemostat, doubling time 6 h
[3] = E. coli NCM3722 delta-lon, growth: N-lim chemostat, doubling time 6 h
[4] = E. coli NCM3722 delta-smpB, growth: N-lim chemostat, doubling time 6 h
[5] = wild type E. coli NCM3722, growth: C-lim chemostat, doubling time 3 h
[6] = wild type E. coli NCM3722, growth: C-lim chemostat, doubling time 6 h
[7] = wild type E. coli NCM3722, growth: C-lim chemostat, doubling time 12 h
[8] = wild type E. coli NCM3722, growth: N-lim chemostat, doubling time 6 h
[9] = wild type E. coli NCM3722, growth: N-lim chemostat, doubling time 12 h
[10] = wild type E. coli NCM3722, growth: P-lim chemostat, doubling time 6 h
[11] = wild type E. coli NCM3722, growth: P-lim chemostat, doubling time 12 h
[12] = E. coli NCM3722 delta-clpP delta-lon delta-hslV, growth: N-lim chemostat, doubling time 6 h

| Sequence | total protein half-life in vivo [1] [h] | total protein half-life in vivo [2] [h] | total protein half-life in vivo [3] [h] | total protein half-life in vivo [4] [h] | total protein half-life in vivo [5] [h] | total protein half-life in vivo [6] [h] | total protein half-life in vivo [7] [h] | total protein half-life in vivo [8] [h] | total protein half-life in vivo [9] [h] | total protein half-life in vivo [10] [h] | total protein half-life in vivo [11] [h] | total protein half-life in vivo [12] [h] |
| --- | --- | --- | --- | --- | --- | --- | --- | --- | --- | --- | --- | --- |
| MNDEMKGKSGKVKVMYVRSDDDSDKRTHNPRTGKGGGRPGKSRADGGRRPARDDKQSQPRDRKWEDSPWRTVSRAPGDETPEKADHGGISGKSFIDPEVLRRQRAEETRVYGENACQALFQSRPEAIVRAWFIQSVTPRFKEALRWMAANRKAYHVVDEAELTKASGTEHHGGVCFLIKKRNGTTVQQWVSQAGAQDCVLALENESNPHNLGGMMRSCAHFGVKGVVVQDAALLESGAAIRTAEGGAEHVQPITGDNIVNVLDDFRQAGYTVVTTSSEQGKPLFKTSLPAKMVLVLGQEYEGLPDAARDPNDLRVKIDGTGNVAGLNISVATGVLLGEWWRQNKA [P0AGJ5] | 5.71 ± 0.11 | 4.87 ± 0.12 | 5.2 ± 0.25 | 4.77 ± 0.058 | 2.91 ± 0.33 | 5.57 ± 0.52 | 10.3 ± 0.99 | 5.53 ± 0.15 | 10.7 ± 1.5 | 5.4 ± 0.26 | 10.9 ± 0.76 | – |
| MNDIAHNLAQVRDKISAAATRCGRSPEEITLLAVSKTKPASAIAEAIDAGQRQFGENYVQEGVDKIRHFQELGVTGLEWHFIGPLQSNKSRLVAEHFDWCHTIDRLRIATRLNDQRPAELPPLNVLIQINISDENSKSGIQLAELDELAAAVAELPRLRLRGLMAIPAPESEYVRQFEVARQMAVAFAGLKTRYPHIDTLSLGMSDDMEAAIAAGSTMVRIGTAIFGARDYSKK | 5.38 ± 2.8 | 4.27 ± 0.37 | 5.68 ± 1.1 | 4.24 ± 0.45 | 3.39 ± 0.11 | 5.71 ± 0.17 | 8.8 ± 1 | 4.33 ± 0.43 | 7.53 ± 0.85 | 5.95 ± 0.28 | 11.1 ± 0.35 | 4.54 ± 0.38 |
| MNDRDFMRYSRQILLDDIALDGQQKLLDSQVLIIGLGGLGTPAALYLAGAGVGTLVLADDDDVHLSNLQRQILFTTEDIDRPKSQVSQQRLTQLNPDIQLTALQQRLTGEALKDAVARADVVLDCTDNMATRQEINAACVALNTPLITASAVGFGGQLMVLTPPWEQGCYRCLWPDNQEPERNCRTAGVVGPVVGVMGTLQALEAIKLLSGIETPAGELRLFDGKSSQWRSLALRRASGCPVCGGSNADPV | 3.65 ± 0.013 | 3.8 ± 0.15 | 5.12 ± 0.89 | 2.97 ± 0.83 | 2.37 ± 0.41 | 4.03 ± 0.18 | 8.83 ± 2.4 | 3.24 ± 0.079 | 8.28 ± 6.9 | 4.26 ± 0.46 | 7.08 ± 0.84 | 4.92 ± 0.58 |
| MNDSEFHRLADQLWLTIEERLDDWDGDSDIDCEINGGVLTITFENGSKIIINRQEPLHQVWLATKQGGYHFDLKGDEWICDRSGETFWDLLEQAATQQAGETVSFR | 6.07 | 5.73 ± 0.14 | 5.77 ± 0.51 | 4.57 ± 1.3 | 2.95 ± 0.78 | 5.61 ± 1.6 | 9.5 | 5.34 ± 0.45 | 9.68 ± 0.16 | 5.67 ± 0.12 | 11 ± 0.23 | 5.94 ± 0.86 |
| MNDTYQPINCDDYDNLELACQHHLMLTLELKDGEKLQAKASDLVSRKNVEYLVVEAAGETRELRLDKITSFSHPEIGTVVVSES [P0AFW8] | 4.86 ± 0.14 | 1.83 | 2.15 ± 0.34 | 1.79 ± 0.12 | – | 1.91 | 3.49 ± 0.41 | 2.05 ± 0.44 | 3.37 | 3.17 ± 1.2 | 5.3 ± 1.6 | – |
| MNEAVSPGALSTLFTDARTHNGWRETPVSDETLREIYALMKWGPTSANCSPARIVFTRTAEGKERLRPALSSGNLQKTLTAPVTAIVAWDSEFYERLPLLFPHGDARSWFTSSPQLAEETAFRNSSMQAAYLIVACRALGLDTGPMSGFDRQHVDDAFFTGSTLKSNLLINIGYGDSSKLYARLPRLSFEEACGLL | 1.43 | 0.257 ± 0.15 | 0.612 ± 0.095 | 0.402 | – | – | – | 0.94 ± 0.6 | – | – | – | – |
